# Results published in US9926355.
# B1: N-terminally hexahistidine-tagged, mature form of human FGF23 (Y25 to I251), R176Q/R179Q (ligand, not shown: small tags and cut ends)
# chain: YPNASPLLGSSWGGLIHLYTATARNSYHLQIHKNGHVDGAPHQTIYSALMIRSEDAGFVVITGVMSRRYLCMDFRGNIFGSHYFDPENCRFQHQTLENGYDVYHSPQYHFLVSLGRAKRAFLPGMNPPPYSQFLSRRNEIPLIHFNTPIPRQHTQSAEDDSERDPLNVLKPRARMTPAPASCSQELPSAEDNSPMASDPLGVVRGGRVNTHAGGTGPEGCRPFAKFI
# Molecular target: binary complex of FGFR1c ligand-binding domain with αKlotho ectodomain (murine; human) (UniProt O35082)
# Assay: SPR; immobilized FGF23, αKlotho-FGFR1c complex compared with FGFR1c ligand-binding domain alone (FIGS. 10D and 10E)
# Chain of binary complex of FGFR1c ligand-binding domain with αKlotho ectodomain (murine; human) (O35082 35-982, form in doubt, chain 1 of 2): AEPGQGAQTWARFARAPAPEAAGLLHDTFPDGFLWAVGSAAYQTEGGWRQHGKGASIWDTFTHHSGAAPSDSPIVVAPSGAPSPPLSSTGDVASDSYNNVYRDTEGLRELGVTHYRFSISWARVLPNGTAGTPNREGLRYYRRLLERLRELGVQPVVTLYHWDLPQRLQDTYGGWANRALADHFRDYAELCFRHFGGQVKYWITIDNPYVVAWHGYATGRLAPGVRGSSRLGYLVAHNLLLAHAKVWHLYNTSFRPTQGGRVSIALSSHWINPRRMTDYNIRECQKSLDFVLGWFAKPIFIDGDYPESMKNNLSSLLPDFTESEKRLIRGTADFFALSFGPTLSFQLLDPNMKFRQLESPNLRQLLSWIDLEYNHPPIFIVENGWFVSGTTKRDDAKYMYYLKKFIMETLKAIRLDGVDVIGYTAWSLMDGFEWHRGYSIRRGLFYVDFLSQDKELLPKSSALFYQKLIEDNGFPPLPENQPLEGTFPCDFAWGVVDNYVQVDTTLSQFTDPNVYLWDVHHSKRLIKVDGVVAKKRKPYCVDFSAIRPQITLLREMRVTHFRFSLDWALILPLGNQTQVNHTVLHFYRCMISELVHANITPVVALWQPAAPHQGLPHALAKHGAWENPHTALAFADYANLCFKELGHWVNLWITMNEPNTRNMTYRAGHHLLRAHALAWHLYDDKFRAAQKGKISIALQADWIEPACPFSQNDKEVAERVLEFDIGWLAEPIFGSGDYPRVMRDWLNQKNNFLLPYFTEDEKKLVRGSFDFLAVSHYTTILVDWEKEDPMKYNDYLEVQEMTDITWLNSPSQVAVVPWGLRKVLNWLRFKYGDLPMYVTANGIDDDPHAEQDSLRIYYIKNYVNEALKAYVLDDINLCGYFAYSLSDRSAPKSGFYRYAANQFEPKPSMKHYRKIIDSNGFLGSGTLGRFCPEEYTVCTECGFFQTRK
# Chain of binary complex of FGFR1c ligand-binding domain with αKlotho ectodomain (murine; human) (P11362 142-365, form in doubt, chain 2 of 2, further chain): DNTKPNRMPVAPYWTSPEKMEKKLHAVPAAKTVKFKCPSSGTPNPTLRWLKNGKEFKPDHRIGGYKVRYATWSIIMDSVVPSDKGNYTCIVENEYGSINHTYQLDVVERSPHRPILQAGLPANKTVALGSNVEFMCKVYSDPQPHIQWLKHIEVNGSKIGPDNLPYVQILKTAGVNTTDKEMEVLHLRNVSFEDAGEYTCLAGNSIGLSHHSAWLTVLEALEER
binder,measurement,value
B1,fold enhancement of affinity against FGFR1c alone,> 20 fold
